Among the data in patent US6500929B1 are complement-mediated lysis of CHO cells (antibody against CHO cells, then 40% human serum) and complement-mediated lysis of swine vascular endothelial cells (SEC) by 20% and 40% human serum values, retold here.

For test [1], the target named is C1 (a first component of complement) of human serum (human) (UniProt P09871).
Test [2] shares this target. This is another data set of the same source.

For the substance “FLAG-C1-INH-GPI (C1-INH-GPI with a FLAG epitope tag added to the C terminal of the signal peptide)”, in test [1], the complement-mediated lysis of CHO cells (antibody against CHO cells, then 40% human serum) worked out at 20%. In test [2], this substance came in with a complement-mediated lysis of swine vascular endothelial cells (SEC) by 20% and 40% human serum of 20%.
